Legend:
Flag-IL28A-D0 (human) = Flag-IL28A-D0 (human) (UniProt Q8IZJ0); test: SDS-PAGE and Western blot (band of about 70 kDa)
[1] = target: the molecule itself; test: SDS-PAGE and Western blot (tetramer and monomer bands)

| stoichiometry N (Flag-IL28A-D0 (human)) | Molecule | stoichiometry N [1] |
| --- | --- | --- |
| 4 | Flag-IL28A-D0 (from UniProt Q8IZJ0 26-200) (natural protein) |  |
|  | Interferon lambda-2 (IL28A), wild type (natural protein, human, UniProt Q8IZJ0 26-200, looked up, also called WT IL28A; IL28A overexpression construct) VPVARLHGALPDARGCHIAQFKSLSPQELQAFKRAKDALEESLLLKDCRCHSRLFPRTWDLRQLQVRERPMALEAELALTLKVLEATADTDPALVDVLDQPLHTLHHILSQFRACIQPQPTAGPRTRGRLHHWLYRLQEAPKKESPGCLEASVTFNLFRLLTRDLNCVASGDLCV | 4 |

From publication PMC7090004, “IL28A protein homotetramer structure is required for autolysosomal degradation of HCV-NS5A in vitro” (Cell Death & Disease, 2020)
